Data published in PMC2275150.

Molecular target: T1, Cdc13-DBD (Saccharomyces cerevisiae, UniProt P32797 497-694)
T1 sequence: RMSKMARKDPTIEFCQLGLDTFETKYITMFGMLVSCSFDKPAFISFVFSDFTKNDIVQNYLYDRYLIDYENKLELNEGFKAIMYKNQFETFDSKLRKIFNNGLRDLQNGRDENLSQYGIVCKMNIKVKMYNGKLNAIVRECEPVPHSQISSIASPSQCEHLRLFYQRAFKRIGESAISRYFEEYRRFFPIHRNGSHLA
Experiment: NMR

B1: Tel11 (ssDNA)
DNA: GTGTGGGTGTG
binding result: binds
